Laboratory results reported in the Immune Epitope Database (IEDB).

Legend:
HLA-A*68:02 = experiment: IEDB peptide-MHC binding, purified MHC/direct/fluorescence; filed as Kd, often an IC50 or EC50 that approximates it; ≥ and ≤ were set here for values at or beyond the usual limits of such assays
HLA-B*40:01 = experiment: as above
HLA-A*02:19 = experiment: as above
HLA-A*03:01 = experiment: as above
HLA-A*26:01 [1] = experiment: IEDB peptide-MHC binding, purified MHC/competitive/fluorescence; filed as Kd, often an IC50 or EC50 that approximates it; ≥ and ≤ were set here for values at or beyond the usual limits of such assays; details: source organism: Zaire ebolavirus
HLA-B*51:01 [2] = experiment: as above; details: source organism: Zaire ebolavirus
HLA-B*57:01 [3] = experiment: as above; details: source organism: Zaire ebolavirus
HLA-A*69:01 [4] = experiment: as above; details: source organism: Zaire ebolavirus
HLA-B*27:05 [5] = experiment: as above
HLA-C*03:03 = experiment: IEDB peptide-MHC binding, purified MHC/direct/fluorescence; filed as Kd, often an IC50 or EC50 that approximates it; ≥ and ≤ were set here for values at or beyond the usual limits of such assays; details: source organism: Bacillus anthracis str. A0488
HLA-B*58:01 [6] = experiment: IEDB peptide-MHC binding, purified MHC/competitive/fluorescence; filed as Kd, often an IC50 or EC50 that approximates it; ≥ and ≤ were set here for values at or beyond the usual limits of such assays; details: source organism: Bacillus anthracis str. A0488
HLA-A*26:01 [7] = experiment: IEDB peptide-MHC binding, purified MHC/direct/fluorescence; filed as Kd, often an IC50 or EC50 that approximates it; ≥ and ≤ were set here for values at or beyond the usual limits of such assays
HLA-B*18:01 = experiment: as above
HLA-B*39:01 = experiment: as above
HLA-A*02:01 = experiment: as above
HLA-B*46:01 [8] = experiment: as above
HLA-B*15:01 = experiment: as above
HLA-B*27:03 = experiment: as above
HLA-A*11:01 = experiment: as above; details: source organism: Pseudomonas aeruginosa
HLA-B*07:02 = experiment: as above
HLA-A*01:01 = experiment: as above; details: source organism: Pseudomonas aeruginosa
HLA-A*69:01 [9] = experiment: as above
HLA-B*58:01 [10] = experiment: as above; details: source organism: Pseudomonas aeruginosa
HLA-B*08:01 = experiment: as above; details: source organism: Pseudomonas aeruginosa
HLA-A*31:01 = experiment: as above; details: source organism: Pseudomonas aeruginosa
HLA-B*27:05 [11] = experiment: as above; details: source organism: Pseudomonas aeruginosa
HLA-B*15:02 = experiment: IEDB peptide-MHC binding, purified MHC/competitive/fluorescence; filed as Kd, often an IC50 or EC50 that approximates it; ≥ and ≤ were set here for values at or beyond the usual limits of such assays
HLA-B*15:17 = experiment: IEDB peptide-MHC binding, purified MHC/direct/fluorescence; filed as Kd, often an IC50 or EC50 that approximates it; ≥ and ≤ were set here for values at or beyond the usual limits of such assays; details: source organism: Rickettsia sibirica 246
HLA-A*02:11 = experiment: as above
HLA-A*29:02 = experiment: as above; details: source organism: Rickettsia sibirica 246
HLA-B*51:01 [12] = experiment: as above
HLA-A*02:12 = experiment: as above
HLA-B*35:01 = experiment: as above
HLA-A*02:03 = experiment: as above
HLA-B*57:01 [13] = experiment: as above
HLA-A*02:16 = experiment: as above
HLA-A*24:03 = experiment: as above
HLA-C*12:03 = experiment: as above; details: source organism: Squirrelpox virus
HLA-B*46:01 [14] = experiment: IEDB peptide-MHC binding, purified MHC/competitive/fluorescence; filed as Kd, often an IC50 or EC50 that approximates it; ≥ and ≤ were set here for values at or beyond the usual limits of such assays; details: source organism: Shigella sonnei Ss046
HLA-C*14:02 = experiment: IEDB peptide-MHC binding, purified MHC/direct/fluorescence; filed as Kd, often an IC50 or EC50 that approximates it; ≥ and ≤ were set here for values at or beyond the usual limits of such assays; details: source organism: Yersinia pestis CO92
[15] = source organism: Zaire ebolavirus
[16] = source organism: Giardia lamblia ATCC 50803
[17] = source organism: Pseudomonas aeruginosa
[18] = source organism: Rickettsia sibirica 246
[19] = source organism: Squirrelpox virus
[20] = source organism: Escherichia coli O157:H7 str. EC4486

What does the source list for KQIPIWLPL?
Kd (HLA-A*68:02; [15]): ≥ 20 µM; Kd (HLA-B*40:01; source organism: Ebola virus - Gabon (1994-1997)): 0.0009 µM; Kd (HLA-A*02:19; [15]): ≥ 20 µM; Kd (HLA-A*03:01; [15]): ≥ 20 µM; Kd (HLA-A*26:01 [1]): ≥ 20 µM; Kd (HLA-B*51:01 [2]): ≥ 20 µM; Kd (HLA-B*57:01 [3]): ≥ 20 µM; Kd (HLA-A*69:01 [4]): ≥ 20 µM; Kd (HLA-B*27:05 [5]; [15]): 0.316 µM

ITLPISASL was tested. Which Kd (HLA-C*03:03) did it give?
Its Kd is at most 0.001 µM.

What about the Kd (HLA-B*58:01 [6]) of the same sequence?
Its Kd is 0.114 µM.

How did the Kd (HLA-A*26:01 [7]; [16]) turn out when LTIVFVPEV was run?
The Kd was at least 20 µM.

What about the Kd (HLA-B*18:01; [16]) of the same sequence?
The Kd was at least 20 µM.

What about the Kd (HLA-B*39:01; [16]) of the same sequence?
The Kd was at least 20 µM.

And the Kd (HLA-A*02:01; [16])?
The Kd was 0.004 µM.

And the Kd (HLA-B*46:01 [8]; [16])?
The Kd was at least 20 µM.

And the Kd (HLA-B*15:01; [16])?
The Kd was at least 20 µM.

And the Kd (HLA-A*03:01; [16])?
The Kd was at least 20 µM.

And the Kd (HLA-B*27:03; [16])?
The Kd was at least 20 µM.

Which Kd (HLA-B*27:05 [5]; source organism: Influenza A virus (A/CHU/2-524/2005(H3N2))) does the source give for GRITVSTKR here?
Its Kd is 0.315 µM.

VRFANELSF was tested. Which Kd (HLA-B*27:05 [5]; source organism: Bacillus cereus H3081.97) did it give?
Its Kd is 0.0996 µM.

With ALEPGFKDY as the sequence, how does the Kd (HLA-A*26:01 [7]; [17]) read?
Its Kd is at least 20 µM.

And the Kd (HLA-A*11:01)?
The Kd was at least 20 µM.

And the Kd (HLA-B*07:02; [17])?
Its Kd is at least 20 µM.

What about the Kd (HLA-A*02:01; [17]) of the same sequence?
The Kd was at least 20 µM.

What about the Kd (HLA-A*01:01) of the same sequence?
Its Kd is 2 µM.

And the Kd (HLA-B*40:01; [17])?
Its Kd is at least 20 µM.

And the Kd (HLA-A*69:01 [9]; [17])?
Its Kd is at least 20 µM.

And the Kd (HLA-B*15:01; [17])?
The Kd was 0.482 µM.

What about the Kd (HLA-B*58:01 [10]) of the same sequence?
Its Kd is at least 20 µM.

What about the Kd (HLA-B*08:01) of the same sequence?
The Kd was at least 20 µM.

What about the Kd (HLA-A*31:01) of the same sequence?
Its Kd is at least 20 µM.

What about the Kd (HLA-B*27:05 [11]) of the same sequence?
Its Kd is at least 20 µM.

What about the Kd (HLA-A*03:01; [17]) of the same sequence?
Its Kd is at least 20 µM.

And the Kd (HLA-B*15:02; source organism: Pseudomonas aeruginosa PACS2)?
The Kd was 0.814 µM.

For EFVSANLAM, which Kd (HLA-A*26:01 [7]; [18]) is on record?
Its Kd is at least 20 µM.

And the Kd (HLA-B*15:17)?
Its Kd is at least 20 µM.

What about the Kd (HLA-A*02:11; [18]) of the same sequence?
Its Kd is at least 20 µM.

What about the Kd (HLA-B*18:01; [18]) of the same sequence?
Its Kd is at least 20 µM.

And the Kd (HLA-A*29:02)?
The Kd was at least 20 µM.

What about the Kd (HLA-B*07:02; [18]) of the same sequence?
Its Kd is at least 20 µM.

What about the Kd (HLA-B*51:01 [12]; [18]) of the same sequence?
Its Kd is at least 20 µM.

What about the Kd (HLA-A*02:12; [18]) of the same sequence?
Its Kd is at least 20 µM.

And the Kd (HLA-A*68:02; [18])?
Its Kd is at least 20 µM.

What about the Kd (HLA-B*39:01; [18]) of the same sequence?
Its Kd is at least 20 µM.

What about the Kd (HLA-A*02:01; [18]) of the same sequence?
Its Kd is at least 20 µM.

And the Kd (HLA-B*35:01; [18])?
The Kd was 0.052 µM.

What about the Kd (HLA-A*02:03; [18]) of the same sequence?
The Kd was at least 20 µM.

And the Kd (HLA-B*46:01 [8]; [18])?
Its Kd is at least 20 µM.

And the Kd (HLA-B*57:01 [13]; [18])?
Its Kd is at least 20 µM.

What about the Kd (HLA-A*69:01 [9]; [18]) of the same sequence?
The Kd was at least 20 µM.

What about the Kd (HLA-B*15:01; [18]) of the same sequence?
The Kd was at least 20 µM.

What about the Kd (HLA-A*02:16; [18]) of the same sequence?
Its Kd is at least 20 µM.

And the Kd (HLA-A*02:19; [18])?
Its Kd is at least 20 µM.

What about the Kd (HLA-A*24:03; [18]) of the same sequence?
Its Kd is at least 20 µM.

And the Kd (HLA-A*03:01; [18])?
The Kd was at least 20 µM.

And the Kd (HLA-B*27:03; [18])?
The Kd was at least 20 µM.

For SALGFTGVY, which Kd (HLA-B*15:02; source organism: Brucella canis ATCC 23365) is on record?
Its Kd is 0.385 µM.

For ELNASFIVF, which Kd (HLA-B*15:02; source organism: Rickettsia massiliae MTU5) is on record?
The Kd was 0.182 µM.

What does the source list for MACHRVLTY?
Kd (HLA-A*26:01 [7]; [19]): ≥ 20 µM; Kd (HLA-A*02:11; [19]): ≥ 20 µM; Kd (HLA-B*18:01; [19]): ≥ 20 µM; Kd (HLA-B*07:02; [19]): ≥ 20 µM; Kd (HLA-B*51:01 [12]; [19]): ≥ 20 µM; Kd (HLA-A*02:12; [19]): ≥ 20 µM; Kd (HLA-A*68:02; [19]): ≥ 20 µM; Kd (HLA-B*39:01; [19]): ≥ 20 µM; Kd (HLA-A*02:01; [19]): ≥ 20 µM; Kd (HLA-B*35:01; [19]): 0.021 µM; Kd (HLA-A*02:03; [19]): ≥ 20 µM; Kd (HLA-B*46:01 [8]; [19]): ≥ 20 µM; Kd (HLA-A*69:01 [9]; [19]): ≥ 20 µM; Kd (HLA-B*15:01; [19]): 0.104 µM; Kd (HLA-A*02:16; [19]): ≥ 20 µM; Kd (HLA-A*02:19; [19]): ≥ 20 µM; Kd (HLA-C*12:03): 0.018 µM; Kd (HLA-A*24:03; [19]): ≥ 20 µM; Kd (HLA-B*27:03; [19]): ≥ 20 µM

What does the source list for YAMMSLFDM?
Kd (HLA-A*26:01 [7]; [20]): ≥ 20 µM; Kd (HLA-B*18:01; [20]): ≥ 20 µM; Kd (HLA-B*07:02; [20]): 18.4 µM; Kd (HLA-B*51:01 [12]; [20]): ≥ 20 µM; Kd (HLA-B*35:01; [20]): 0.004 µM; Kd (HLA-A*02:03; [20]): ≥ 20 µM; Kd (HLA-B*57:01 [13]; [20]): ≥ 20 µM; Kd (HLA-A*03:01; [20]): ≥ 20 µM; Kd (HLA-B*27:03; [20]): ≥ 20 µM; Kd (HLA-B*46:01 [14]): 0.113 µM

Which results are given for KIMQVDRPM?
Kd (HLA-C*14:02): 0.102 µM; Kd (HLA-B*15:02; source organism: Yersinia pestis CO92): 4 µM
